# According to article doi:10.1101/481754, “Tumor Protein D54 is a promiscuous Rab effector” (bioRxiv, 2018):
# B1: GST-Rab1a (natural protein)
# chain: not shown
# notes: human Rab1a, cut from GFP-Rab1a and inserted into pGEX-6P1; pre-loaded with GDP or GppNHp; source: E. coli BL21, purified (GSTrap); not shown: GST, N-terminal, kept
# Target: T1, MBP-TPD54-His (human, UniProt O43399 1-206)
# T1 construct: human Tumor protein D54 (TPD54/TPD52L2) inserted in the pMalPre-His vector; also called recombinant MBP-TPD54-His; source: E. coli BL21, purified (HisTrap); not shown: MBP, N-terminal, kept; His, C-terminal, kept
# T1 sequence (O43399 whole entry): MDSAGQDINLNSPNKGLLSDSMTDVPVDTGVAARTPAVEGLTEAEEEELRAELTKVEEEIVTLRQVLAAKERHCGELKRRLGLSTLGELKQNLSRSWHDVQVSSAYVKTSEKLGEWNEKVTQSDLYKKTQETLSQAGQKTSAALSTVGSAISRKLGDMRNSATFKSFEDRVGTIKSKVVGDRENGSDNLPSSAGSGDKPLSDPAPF
# Experiment: pull-down; 3 µM GST, GST-Rab1a or GST-Rab6a pre-loaded with 300 µM GppNHp, incubated with 3 µM MBP-TPD54-His 90 min at 20 °C in 25 mM HEPES, 150 mM KCl, 5 mM MgCl2 pH 7.4; glutathione-sepharose beads; Coomassie gel
# Conditions: both partners purified
binder,measurement,value
B1,binding result,binds
